Data from US20260217860A1.

Assays:
[1] = biological target: human MUC1 (484 amino acids) on CHO-S-hMUC1 (484AA) cells (human) (UniProt P15941); assay: flow cytometry, transfected CHO-S cells
[2] = biological target: human EGFR on CHO-S-hEGFR cells (human) (UniProt P00533); assay: flow cytometry, transfected CHO-S cells
[3] = biological target: monkey (Macaca fascicularis) MUC1 on CHO-S-fasMUC1 cells (monkey (Macaca fascicularis)); assay: flow cytometry, transfected CHO-S cells
[4] = biological target: monkey EGFR on CHO-S-fasEGFR cells (monkey) (UniProt P55245); assay: flow cytometry, transfected CHO-S cells
[5] = biological target: human MUC1 (484 amino acids) on CHO-S-hMUC1 (484AA) cells (human) (UniProt P15941); assay: flow cytometry, transfected CHO-S cells, secondary antibody only
[6] = biological target: human EGFR on CHO-S-hEGFR cells (human) (UniProt P00533); assay: as above
[7] = biological target: monkey (Macaca fascicularis) MUC1 on CHO-S-fasMUC1 cells (monkey (Macaca fascicularis)); assay: as above
[8] = biological target: monkey EGFR on CHO-S-fasEGFR cells (monkey) (UniProt P55245); assay: as above

Sequence of monkey (Macaca fascicularis) MUC1 on CHO-S-fasMUC1 cells (monkey (Macaca fascicularis)) (chain, as listed by the source): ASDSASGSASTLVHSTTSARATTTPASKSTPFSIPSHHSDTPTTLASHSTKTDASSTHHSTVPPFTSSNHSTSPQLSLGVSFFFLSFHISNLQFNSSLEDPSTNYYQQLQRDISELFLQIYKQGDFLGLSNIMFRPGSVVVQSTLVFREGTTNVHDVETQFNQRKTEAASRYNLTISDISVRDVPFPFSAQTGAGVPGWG

| Substance | Percentage of Positive Cells (%) [1] | Percentage of Positive Cells (%) [2] | Percentage of Positive Cells (%) [3] | Percentage of Positive Cells (%) [4] | Percentage of Positive Cells (%) [5] | Percentage of Positive Cells (%) [6] | Percentage of Positive Cells (%) [7] | Percentage of Positive Cells (%) [8] |
| --- | --- | --- | --- | --- | --- | --- | --- | --- |
| isotype control (ISO), an antibody targeting an irrelevant target protein | 4.05% | 0.7% | 1.15% | 0.58% |  |  |  |  |
| secondary antibody anti-hIgG-Fc-Alex Flour 647 (RLI-H) (Jackson ImmunoResearch Laboratories, Inc., Cat #: 109-606-170) |  |  |  |  | 2% | 0.66% | 0.91% | 0.19% |
